Results reported in patent publication US20240109974A1 (SHANDONG SIMCERE BIOPHARMACEUTICAL, published 2024).
Changes are numbered by the printed parent chain. Each block holds one binder with its values, some of them ahead of it.

Tests used:
[1] = biological target: T1, Human TNFR2-His (Sino 10417-H08H) (human, UniProt P20333 23-257); assay: SPR (Biacore T200), antibody captured on Protein A chip
T1 construct: Bought protein; also called recombinant human TNFR2 protein; not shown: His tag
T1 sequence (looked up): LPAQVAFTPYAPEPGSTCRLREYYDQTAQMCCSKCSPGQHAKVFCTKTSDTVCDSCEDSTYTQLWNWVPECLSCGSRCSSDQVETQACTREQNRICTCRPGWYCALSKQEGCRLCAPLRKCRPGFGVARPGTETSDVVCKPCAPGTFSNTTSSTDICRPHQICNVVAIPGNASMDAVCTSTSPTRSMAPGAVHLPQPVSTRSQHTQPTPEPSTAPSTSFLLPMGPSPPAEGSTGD
Experimental: (§1) Biacore was used to detect the specific binding of a test anti-TNFR2 antibody to human and cynomolgus monkey TNFR2 proteins. In this experiment, a Protein A chip was used, the time required for the chip to capture the diluted antibody was determined by manual run, so that the Rmax of the saturated binding to an antigen was 50 RU. […] The affinity of an antibody for an antigen was determined by using multi-cycle dynamics. In each cycle, an antibody was injected and then a TNFR2 protein at a gradient concentration was injected, so that the antigen and the antibody underwent binding and dissociation processes. After each cycle, the Protein A chip was regenerated with Glycine pH 1.5 (removing the protein on the chip). The affinity KD of an antibody and an antigen was fitted with BIAcore T200 analysis software.

[2] = biological target: T2, Cynomolgus TNFR2-His (Sino 90102-C08H) (cynomolgus monkey, UniProt A0A2K5VET2 132-366); assay: as above
T2 construct: Bought protein; also called cynomolgus monkey TNFR2; recombinant cynomolgus monkey TNFR2 protein; not shown: His tag
T2 sequence: T1 sequence (looked up) with S16G, S36P, P117Q, N164H, E210A, S216G, M223V
Experimental: as §1

[3] = biological target: T3, human TNFR2 (Novoprotein, Cat #C830) (human, UniProt P20333 23-257, limits assumed); assay: competition ELISA, human TNFR2 coated, competitor human TNFα-Biotin
T3 construct: construct not described; also called human TNFR2 protein
T3 sequence (looked up): T1 sequence (looked up)
Experimental: 1 μg/ml human TNFR2 (Novoprotein, Cat #C830) was pre-coated with 100 μl/well […] in an ELISA plate. All the test TNFR2 antibodies were subjected to 2.5-fold gradient dilution from the highest concentration of 30 μg/ml; the diluted antibodies were mixed with 15 ng/ml human TNFα-Biotin (Acro Biosystem, Cat #TNA-H82E3) in equal volume, respectively; the resulting mixture was added to the ELISA plate at 100 μl/well, and incubated with shaking at room temperature for 2.0 hours. The plate was washed, and then a Streptavidin-HRP working solution (diluted at 1:10000) was added at 100 μl/well, and the mixture was incubated with shaking at room temperature for 40 minutes. The plate was washed again, and then the substrate TMB of HRP was added to develop colour. A stop solution was added to stop the reaction, and then a microplate reader (MD 13) was used to read the absorbance value. The inhibitory curve of an antibody was drawn with antibody concentration as the abscissa and corresponding OD value as the ordinate, and fitted with four parameters (GraphPad Prism9) to calculate the IC50 value. The smaller the IC50 value, the stronger the ability of an antibody to inhibit the binding of human TNFα to human TNFR2. The blocking effect of a humanized antibody was normalized to its corresponding human-murine chimeric antibody WT. The higher the percentage value, the better the inhibitory effect of the humanized antibody.

[4] = biological target: T4, human TNFR2 on the surface of CHO-TNFR2 cells (human, UniProt P20333 23-461); assay: competition flow cytometry on CHO-TNFR2 cells, competitor TNFα-biotin; area under the MFI curve; parameters: unit not given beside the values
T4 construct: whole, on cells
T4 sequence (looked up): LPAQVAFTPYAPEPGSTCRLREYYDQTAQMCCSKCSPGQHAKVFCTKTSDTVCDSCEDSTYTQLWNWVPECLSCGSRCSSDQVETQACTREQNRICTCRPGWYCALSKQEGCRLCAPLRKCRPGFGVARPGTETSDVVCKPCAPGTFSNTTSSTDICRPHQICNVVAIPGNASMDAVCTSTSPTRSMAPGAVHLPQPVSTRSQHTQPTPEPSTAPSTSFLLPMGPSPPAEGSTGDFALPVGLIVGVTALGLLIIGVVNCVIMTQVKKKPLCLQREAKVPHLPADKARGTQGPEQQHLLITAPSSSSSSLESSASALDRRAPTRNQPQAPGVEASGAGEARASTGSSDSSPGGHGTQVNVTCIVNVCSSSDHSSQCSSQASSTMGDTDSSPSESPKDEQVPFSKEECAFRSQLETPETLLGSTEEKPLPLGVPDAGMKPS
Experimental: CHO stable cells highly expressing human TNFR2 were used for the experiment (the same as CHO-TNFR2 in Example 4). The CHO-TNFR2 cells were digested, washed twice with DPBS, then stained with Live/Dead (L/D) (20 minutes at room temperature), and plated at a density of 1×10⁵ cells/50 μl/well. A test anti-TNFR2 antibody was diluted to 6 μg/ml with a staining buffer as the starting concentration: the antibody was subjected to 3.33-fold gradient dilution, with a total of 7 concentration points. The diluted antibody was added to the plated cells at 50 μl/well, and the mixture was mixed well by gentle pipetting, and incubated at 4° C. for 30 minutes. Then the diluted 100 ng/ml of human TNFα-biotin was added at 100 μl/well, and the mixture was mixed well by gentle pipetting, and then incubated at 4° C. for 30 minutes. The mixture was washed twice with a staining buffer, and then 0.12 μg/ml PE-streptavidin (BioLegend, Cat #405204) was added at 100 μl/well; the resulting mixture was incubated at 4° C. for 30 minutes. The mixture was washed twice with a staining buffer, and then 150 μl of staining buffer was added to resuspend the cells; signals were detected by a flow cytometer (Thermo Attune NxT). The inhibitory curve of an antibody was drawn with antibody concentration as the abscissa and corresponding MFI value as the ordinate, and fitted with four parameters (GraphPad Prism9) to calculate the IC50 value. The smaller the IC50 value, the stronger the ability of an antibody to inhibit the binding of human TNFα to human TNFR2. The blocking effect of a humanized antibody was normalized to its corresponding human-murine chimeric WT antibody. The higher the percentage value, the better the inhibitory effect of the humanized antibody.

B1: 224-WT (antibody, V domains shown)
VH: EVQLQESGPEIVKPGASVKLSCTASGFNNKDIYMHWVKQRPEQGLEWIGRIDPATGNTKHDPKFQDKATLSSDTSSNTAYLQFSSLTSEDTAVYYCAHSPYGDFGAMDYWGQGTTVTVSS
VL: DIQMTQSPAIMSASLGERVTMTCTASSSVSSNYLHWYQQKPGSSPKLWIYSTSNLPSGVPARFSGSGSGTSYSLTISSMEAEDAATYYCHQYHRSPWTFGGGTKLEIK
notes: Human-murine chimeric wild-type molecule; also called human-murine chimeric antibody WT of #224
- Kd [1]: 2.33 nM
- koff [1]: 0.000405 s⁻¹
- kon [1]: 174000 M⁻¹ s⁻¹
- Kd [2]: 0.897 nM
- koff [2]: 0.000409 s⁻¹
- kon [2]: 456000 M⁻¹ s⁻¹

B3: 001-Hu5 (antibody, V domains shown)
VH: EVQLVESGGGLVQPGGSLRLSCAASGFAFSTYDLSWVRQAPGKGLEWVAYINNGGISTYYSDTVKGRFTISRDNAKNTLYLQMNSLRAEDTAVYYCVRGPFYGSANYFDYWGQGTLVTVSS
VL: DIQMTQSPSSLSASVGDRVTITCRTSESIYSNLPWYQQKPGKSPKLLVYDATKLAEGVPSRFSGSGSGTDYTLTISSLQPEDFATYYCQHFWVTPWTFGQGTKVEIK
notes: Humanized form of #001; also called VH1 + VL4
- IC50 [3]: 0.656 µg/mL
- Kd [1]: 0.416 nM
- koff [1]: 0.000115 s⁻¹
- kon [1]: 277000 M⁻¹ s⁻¹
- Kd [2]: 0.475 nM
- koff [2]: 0.000175 s⁻¹
- kon [2]: 369000 M⁻¹ s⁻¹
- AUC [4]: 10200

B4: 001-Hu2 (antibody, V domains shown)
VH: B3 VH with T78S
VL: B3 VL with V48I, Y71F
notes: Humanized form of #001; also called VH2 + VL2
- IC50 [3]: 0.78 µg/mL
- Kd [1]: 0.496 nM
- koff [1]: 0.000107 s⁻¹
- kon [1]: 215000 M⁻¹ s⁻¹
- Kd [2]: 0.599 nM
- koff [2]: 0.000164 s⁻¹
- kon [2]: 273000 M⁻¹ s⁻¹
- AUC [4]: 9000

B5: 001-Hu3 (antibody, V domains shown)
VH: B3 VH
VL: B3 VL with S43A, V48I
notes: Humanized form of #001; also called VH1 + VL3
- IC50 [3]: 0.597 µg/mL
- Kd [1]: 0.375 nM
- koff [1]: 9.91e-05 s⁻¹
- kon [1]: 265000 M⁻¹ s⁻¹
- Kd [2]: 0.43 nM
- koff [2]: 0.000155 s⁻¹
- kon [2]: 361000 M⁻¹ s⁻¹
- AUC [4]: 8810

B6: 001-Hu4 (antibody, V domains shown)
VH: B3 VH with T78S
VL: B3 VL
notes: Humanized form of #001; also called VH2 + VL4
- IC50 [3]: 0.59 µg/mL
- Kd [1]: 0.417 nM
- koff [1]: 0.000113 s⁻¹
- kon [1]: 270000 M⁻¹ s⁻¹
- Kd [2]: 0.473 nM
- koff [2]: 0.000167 s⁻¹
- kon [2]: 354000 M⁻¹ s⁻¹
- AUC [4]: 10200

B7: 001-Hu1 (antibody, V domains shown)
VH: B3 VH
VL: B3 VL with S43A, V48L
notes: Humanized form of #001; also called VH1 + VL1
- IC50 [3]: 0.573 µg/mL
- Kd [1]: 0.371 nM
- koff [1]: 0.000108 s⁻¹
- kon [1]: 291000 M⁻¹ s⁻¹
- Kd [2]: 0.47 nM
- koff [2]: 0.00016 s⁻¹
- kon [2]: 340000 M⁻¹ s⁻¹
- AUC [4]: 8840

B8: 219-WT (antibody, V domains shown)
VH: EVQLQESGAELVRPGASVKLSCKASGYSFTNYWMNWVKQRPGQGLEWIGMIHPSDTETRLNQNFKDKATLTVDKSSSTSYMQLSSPTSEDSAVYYCARGEGLGAARSVSMDYWGQGTTVTVSS
VL: DILMTQSPSSLSASLGDRVTISCRASQDISNYLNWYQQKPDGTVKVLIYYTAILHSGVPSRFSGSGSGTDYSLTISNLEQEDIATYFCQQGNTLPWTFGGGTKLEIK
notes: Human-murine chimeric wild-type molecule
- Kd [1]: 0.554 nM
- koff [1]: 0.000192 s⁻¹
- kon [1]: 346000 M⁻¹ s⁻¹
- Kd [2]: 1.14 nM
- koff [2]: 0.000562 s⁻¹
- kon [2]: 492000 M⁻¹ s⁻¹

B9: 219-Hu3 (antibody, V domains shown)
VH: QVQLVQSGAEVKKPGSSVKVSCKASGYSFTNYWMNWVRQAPGQGLEWMGMIHPSDTETRLNQNFKDRVTITADKSTSTAYMELSSLRSEDTAVYYCARGEGLGAARSVSMDYWGQGTLVTVSS
VL: B8 VL with L3Q, L15V, S22T, V46L, N77S, E79Q, Q80P, I83F, G100Q, L104V
notes: also called VH5 + VL5
- IC50 [3]: 0.545 µg/mL
- Kd [1]: 0.362 nM
- koff [1]: 0.000146 s⁻¹
- kon [1]: 403000 M⁻¹ s⁻¹
- Kd [2]: 0.723 nM
- koff [2]: 0.000399 s⁻¹
- kon [2]: 552000 M⁻¹ s⁻¹
- AUC [4]: 7590

The remaining lines, values ahead:

- Kd [1]: 0.235 nM
- koff [1]: 0.000121 s⁻¹
- kon [1]: 512000 M⁻¹ s⁻¹
- Kd [2]: 0.252 nM
- koff [2]: 0.000154 s⁻¹
- kon [2]: 614000 M⁻¹ s⁻¹
B2: 001-WT (antibody, V domains shown)
VH: B3 VH with V5Q, R19N, A40T, G42E, G44R, N84S, R87K, A88S, V93M, L116T
VL: EIVMTQSPASLSLSVGETVTITCRTSESIYSNLPWYQQKQGKSPQLLVYDATKLAEGVPSRFSGSESGTQYSLKINSLQSEDFGTYYCQHFWVTPWTFGGGTKLEIK
notes: Human-murine chimeric wild-type molecule; also called human-murine chimeric antibody WT of #001

- IC50 [3]: 0.49 µg/mL
- Kd [1]: 0.354 nM
- koff [1]: 0.000153 s⁻¹
- kon [1]: 433000 M⁻¹ s⁻¹
- Kd [2]: 0.532 nM
- koff [2]: 0.000332 s⁻¹
- kon [2]: 623000 M⁻¹ s⁻¹
- AUC [4]: 7320
B10: 219-Hu1 (antibody, V domains shown)
VH: B9 VH with S16A, G44R, A72R, K74T, T76A
VL: B8 VL with L3Q, L15V, S22T, V46L, N77S, E79Q, Q80P, I83F, G100Q, L104V
notes: also called VH3 + VL5

- IC50 [3]: 0.606 µg/mL
- Kd [1]: 0.318 nM
- koff [1]: 0.000154 s⁻¹
- kon [1]: 484000 M⁻¹ s⁻¹
- Kd [2]: 0.576 nM
- koff [2]: 0.000389 s⁻¹
- kon [2]: 675000 M⁻¹ s⁻¹
- AUC [4]: 7320
B11: 219-Hu4 (antibody, V domains shown)
VH: B9 VH with R38K, M48I, R67K, V68A, I70L, A72V
VL: B8 VL with L3Q, L15V, S22T, V46L, N77S, E79Q, Q80P, I83F, G100Q, L104V
notes: also called VH6 + VL5

- IC50 [3]: 0.472 µg/mL
- Kd [1]: 0.34 nM
- koff [1]: 0.000151 s⁻¹
- kon [1]: 443000 M⁻¹ s⁻¹
- Kd [2]: 0.681 nM
- koff [2]: 0.000412 s⁻¹
- kon [2]: 605000 M⁻¹ s⁻¹
- AUC [4]: 7340
B12: 219-Hu2 (antibody, V domains shown)
VH: B9 VH with R67K, V68A
VL: B8 VL with L3Q, L15V, S22T, V46L, N77S, E79Q, Q80P, I83F, G100Q, L104V
notes: also called VH4 + VL5
